From PMC9638933

How the values were obtained:
Assay in all cases: EMSA; 5 mM Mg2+
Settings in all cases: protein: recombinant; tags: His (Ni-NTA purified; pMCSG7); chain copies: 2; label: 5' 6-FAM on strand 1; blunt
[1] = biological target: T1, Ku D250A (Mycobacterium tuberculosis, UniProt P9WKD9 1-273, D250A)
T1 sequence: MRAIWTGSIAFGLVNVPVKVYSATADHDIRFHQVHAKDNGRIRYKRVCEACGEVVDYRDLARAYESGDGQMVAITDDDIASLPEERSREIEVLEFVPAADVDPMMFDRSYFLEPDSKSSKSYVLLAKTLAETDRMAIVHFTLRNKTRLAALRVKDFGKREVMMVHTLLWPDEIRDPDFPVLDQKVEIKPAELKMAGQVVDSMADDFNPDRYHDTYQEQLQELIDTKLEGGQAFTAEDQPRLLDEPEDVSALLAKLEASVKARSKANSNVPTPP

[2] = biological target: T2, Ku S258A (Mycobacterium tuberculosis, UniProt P9WKD9 1-273, S258A)
T2 sequence: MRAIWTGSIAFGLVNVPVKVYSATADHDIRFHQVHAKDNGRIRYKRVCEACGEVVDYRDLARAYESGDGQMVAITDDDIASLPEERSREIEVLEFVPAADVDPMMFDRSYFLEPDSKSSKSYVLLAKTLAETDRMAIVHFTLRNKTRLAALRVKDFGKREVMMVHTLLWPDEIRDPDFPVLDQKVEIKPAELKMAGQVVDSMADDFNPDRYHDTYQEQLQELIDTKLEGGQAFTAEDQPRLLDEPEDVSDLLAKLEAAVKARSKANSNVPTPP

[3] = biological target: T3, Ku R262A (Mycobacterium tuberculosis, UniProt P9WKD9 1-273, R262A)
T3 sequence: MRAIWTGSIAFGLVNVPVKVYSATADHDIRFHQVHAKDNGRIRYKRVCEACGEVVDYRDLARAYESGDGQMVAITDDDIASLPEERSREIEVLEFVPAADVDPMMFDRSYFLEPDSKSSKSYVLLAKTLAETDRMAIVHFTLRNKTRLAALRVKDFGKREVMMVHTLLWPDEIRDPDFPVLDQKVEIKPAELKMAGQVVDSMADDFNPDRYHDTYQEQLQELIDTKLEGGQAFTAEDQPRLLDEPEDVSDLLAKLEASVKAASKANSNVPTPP

[4] = biological target: T4, Ku L251A (Mycobacterium tuberculosis, UniProt P9WKD9 1-273, L251A)
T4 sequence: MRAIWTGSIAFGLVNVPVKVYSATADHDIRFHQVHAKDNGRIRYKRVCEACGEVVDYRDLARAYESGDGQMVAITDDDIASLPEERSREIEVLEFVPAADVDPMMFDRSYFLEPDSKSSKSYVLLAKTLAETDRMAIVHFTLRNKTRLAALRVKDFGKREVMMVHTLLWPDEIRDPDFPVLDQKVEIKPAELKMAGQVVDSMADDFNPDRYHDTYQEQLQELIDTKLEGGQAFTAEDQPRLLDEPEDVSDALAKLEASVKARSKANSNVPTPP

[5] = biological target: T5, Ku D247A (Mycobacterium tuberculosis, UniProt P9WKD9 1-273, D247A)
T5 sequence: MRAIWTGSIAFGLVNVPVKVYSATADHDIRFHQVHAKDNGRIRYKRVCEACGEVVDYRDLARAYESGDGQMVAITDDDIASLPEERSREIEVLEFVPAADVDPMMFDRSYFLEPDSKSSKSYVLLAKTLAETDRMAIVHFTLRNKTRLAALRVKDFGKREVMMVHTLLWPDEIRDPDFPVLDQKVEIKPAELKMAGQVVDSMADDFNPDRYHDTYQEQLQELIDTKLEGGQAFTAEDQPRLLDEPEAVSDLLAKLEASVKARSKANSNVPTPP

B1: 40 bp dsDNA (dsDNA)
DNA 1: CAGGGTAAGTGTGGAGGTGTAGGGAAGGGAATGTTGTCTG
DNA 2: CAGACAACATTCCCTTCCCTACACCTCCACACTTACCCTG
Binder B1 has a Kd [1] of 140 ± 10 nM, a Kd [2] of 1340 ± 290 nM and a Kd [3] of 140 ± 10 nM. It also gave a Kd [4] of 1300 ± 190 nM and a Kd [5] of 160 ± 10 nM.
